Here are results for two compounds from patent US12617816B2 (priority 2019, dated 2026).

Like-named read-outs stand apart in the source and are kept apart here.

The conditions of data set [1]: mouse, in vivo.
Data set [2] concerns the target T1, human mu-opioid receptor (Homo sapiens, UniProt P35372).
T1 construct: host or cells: CHO-K1
Kind of data set: cell-based. In kind it is binding.

For data set [3], the target named is MOR (Homo sapiens, UniProt P35372).
Data set [4] relates to MOR. Further details: species or system mice. Conditions: in vivo.
Data set [5] concerns the target T1, human mu-opioid receptor. In kind it is cell-based.
A short description of a further data set: in vivo. Conditions: mouse, iv.
For data set [6] the following is noted: in vivo; cited from earlier work.

T1 sequence (P35372 whole entry): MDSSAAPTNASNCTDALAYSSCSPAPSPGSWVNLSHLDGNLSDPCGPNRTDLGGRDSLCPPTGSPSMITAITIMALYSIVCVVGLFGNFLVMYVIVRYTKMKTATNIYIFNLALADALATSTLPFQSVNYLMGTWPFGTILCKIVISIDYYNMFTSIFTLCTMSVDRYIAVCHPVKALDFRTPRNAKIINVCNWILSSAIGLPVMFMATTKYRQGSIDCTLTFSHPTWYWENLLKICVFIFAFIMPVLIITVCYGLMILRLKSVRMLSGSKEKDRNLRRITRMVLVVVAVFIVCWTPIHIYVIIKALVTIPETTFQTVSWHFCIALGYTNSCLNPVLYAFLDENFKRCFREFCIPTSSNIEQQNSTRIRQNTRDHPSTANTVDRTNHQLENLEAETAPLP
MOR (Homo sapiens, UniProt P35372), sequence (P35372 whole entry): as above

With `C[C@@H](NC(=O)[C@@H](N)Cc1ccc(O)cc1)C(=O)N[C@@H](Cc1ccccc1)C(=O)NCC(=O)N[C@@H](Cc1ccc(O)cc1)C(=O)N1CCC[C@H]1C(=O)N[C@@H](CCCCN)C(=O)N[C@@H](CSC1CC(=O)N(CCNC(=O)CCCCC[N+]2=C(/C=C/C3=C(Oc4ccc(S(=O)(=O)O)cc4)C(=C/C=C4/N(CCCCS(=O)(=O)O)c5ccc(S(=O)(=O)O)cc5C4(C)C)/CCC3)C(C)(C)c3cc(S(=O)(=O)[O-])ccc32)C1=O)C(N)=O` (stereo partly drawn) [DRM-800, [Lys7]dermorphin-IRDye800CW], in data set [1], the “tolerability of intravenous injection” value is recorded as “well-tolerated”. In data set [1] (iv), the “distribution half-life (biexponential)” value is given as 6.2 (4.9-8.6) min, the “elimination (β) half-life (biexponential)” value is reported as 45 (33-68) min, the persistence in plasma result is reported as “at least one hour” and the “plasma half-life (time in which the concentration of dye is 50% of initial)” value is 12.6 min. At human mu-opioid receptor [2], this compound gave an IC50 of 3.5 nM and a Ki of 0.64 nM. Moreover, on MOR [3], the “Binding potential (BP)” value was “approximately 10”. Besides, the “ratio of enhancement, wildtype to knockout mouse” value in the data set with MOR [4] is 3.1 ×. The “enhancement in wildtype compared to knockout mice” value in the data set with MOR [4] (mouse) is “higher enhancement in the wildtype mice compared to knockout mice”. In addition, the “displacement of retained DRM-800 by naloxone” value at human mu-opioid receptor [5] was “cannot be displaced even at high concentrations of naloxone”. Further, in “in vivo” (distribution half-life (biexponential)), the half-life came out at 3.3 min. Besides, in “in vivo” (elimination (β) half-life (biexponential)), the half-life was determined as 70.8 min. The compound also displayed a half-life in “in vivo” (plasma half-life (time in which the concentration of dye is 50% of initial)) of 7.95 min.
Consider `C=CCN1CC[C@]23c4c5ccc(O)c4O[C@H]2C(=O)CC[C@@]3(O)[C@H]1C5` [naloxone], for which, in data set [6], the half-life was 60 to 80 min.
